{
  "source": "the nanobody polyreactivity screen of Harvey et al. (2022)",
  "data": [
    {"test": "yeast display, Sf9 membrane polyspecificity reagent, FACS + sequencing; frameworks hold sequencing errors", "in_short": "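Polyreactivity labels are assigned by the sorting gate from which each nanobody was recovered. The gates were low and high (top ~1%), set on anti-HA fluorescence for expression and streptavidin fluorescence for reagent binding. Before sorting, galactose-induced (36–48 hours) yeast display cells were stained for 1 hour at 4 °C with 10% biotinylated, detergent-solubilized Sf9 membrane reagent.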", "values": [
      {"sequence": "QVQLVESGGGLVQAGGSLRLSCAASGSTFGYYTMGWYRQEPGKERELVAAITWSGGSTYFEDSVKGRFTISRDNAKNTVYLQMNSLKPEDTAVYYCAADYYWTPFGYWGQGTLVTVSS", "polyreactivity (PSR sort gate)": "low polyreactivity"},
      {"sequence": "QVQLVESGGGLVQAGGSLRLSCAASGSTFGYYVMGWSRQAPGKERELVAAISWGGGSTYYADSVKGRFTISRDNAQNTVYLQMNSLNPEDTAVYYCNLRDQWWGYDYWGQGTQVTVSS", "polyreactivity (PSR sort gate)": "low polyreactivity"},
      {"sequence": "QVQLVESGGGLVQAGGSLRLSCAASGSTFHGNAMGWYRQAPGKERELVAAISRSGGSTYYADSVKGRFTISRDNAKNTVYLQMNSLKPEDTAVYYCAAETVYKWWYDYYYWGQGTQVTVSS", "polyreactivity (PSR sort gate)": "high polyreactivity"},
      {"sequence": "QVQLVESGGGLVQAGGSLRLSCAASGSTFHLYAMGWNRQAPGKERQFVAAIRGRGGNTYADSVKGRFTISRDNAKNTVYLQMNSLKPEDTAVYYCAAPLLRDLRSPYSYNYWGQGSQVTVSS", "polyreactivity (PSR sort gate)": "low polyreactivity"},
      {"sequence": "QVQLVESGGGLVQAGGSLRLSCAASGSTFHLYAMGWYRQAPGKEREIVAAIRGRGGNTYADSVKGRFTISRDNAKNTVYLQMNSLKPEDTAVYYCAAPLLRDLRSPYSYNYWGQGTQVTVSS", "polyreactivity (PSR sort gate)": "low polyreactivity"},
      {"sequence": "QVQLVESGGGLVQAGGSLRLSCAASGSTFHLYAMGWYRQAPGKERELVASITWSGGRTYYADSVKGRFTISRDYAKNTVYLHMNSLKPEDTAVYYCAAGDVNWSYSLLYTVVLYDSWGQGTQVTVSS", "polyreactivity (PSR sort gate)": "high polyreactivity"},
      {"sequence": "QVQLVESGGGLVQAGGSLRLSCAASGSTFHRNAMGWSRQAPGKERELVAAISFSGGRTYYADSVKGRFTISRDNAKNTVNLQMNSLKPEDTAVYYCAAVTASPGSYPDDYWGQGTQVTVSS", "polyreactivity (PSR sort gate)": "low polyreactivity"},
      {"sequence": "QVQLVESGGGLVQAGGSLRLSCAASGSTFHRYAMGWSRQAPGKERELVATINLNTGSTYADSVKGRFTISRDNAKNTVYVQMNSLKPEDTAVYYCAAYGRWPFTWYNYWGQGTQVTVSS", "polyreactivity (PSR sort gate)": "low polyreactivity"},
      {"sequence": "QVQLVESGGGLVQAGGSLRLSCAASGSTFHRYAMGWYRQAPGKERELVATITSRGGITYYADSVKGRFTISRDNSKNTVYLQMNSLNPEDTALYYCNTEDGTTPQYGYDQGMYYWGQGTQVTVSS", "polyreactivity (PSR sort gate)": "low polyreactivity"},
      {"sequence": "QVQLVESGGGLVQAGGSLRLSCAASGSTFHTYVMGWYRQAPGKERELVASISSGGSTYYADSVKGRFTISRDNAKNTVSLQMNSLKPEDTAVYYCAAGYPYYWHFDYWGQGSQVTVSS", "polyreactivity (PSR sort gate)": "low polyreactivity"},
      {"sequence": "QVQLVESGGGLVQAGGSLRLSCAASGSTFHWYDMGWYRQAPGKERELVAGINTSGDGTYYADSVKGRFTISRDNAKNTVYLQMNSLKPEDTAVYYCAAEYYTYWGYEDDYWGQGTQVTVSS", "polyreactivity (PSR sort gate)": "low polyreactivity"},
      {"sequence": "QVQLVESGGGLVQAGGSLRLSCAASGSTFHYYAMGWYRQAPGKERELVAAINSGARTYYADSVKGRFTISRDNAKNTVYLQMNSLKPEDTAVYYCAKDYTYSFGRSLDYWGQGTQVTVSS", "polyreactivity (PSR sort gate)": "low polyreactivity"},
      {"sequence": "QVQLVESGGGLVQAGGSLRLSCAASGSTFHYYAMGWYRQEPGKERELVAAISGSGSSTYYADSVKGRFTISRDNAKNTVYLQMNSLKPEDTAVYYCNARGHYPRARFGYKSGSDRYWGQGTQVTVSS", "polyreactivity (PSR sort gate)": "high polyreactivity"},
      {"sequence": "QVQLVESGGGLVQAGGSLRLSCAASGSTFIDYAMGWYRQAPGKERELVASITWSGGSTYYADSVKGRFTISRDNAKNTVYLQMNSLKPEDTAVYYCNADVNVGLEVRIVYEYDYWGQGTQVTVSS", "polyreactivity (PSR sort gate)": "low polyreactivity"},
      {"sequence": "QVQLVESGGGLVQAGGSLRLSCAASGSTFIGYDMGWFRQAPGTERELVAAISYSDGTYYADSVKGRFTISRDNAKNTVYLQMNSLKPEDTAVYYCAADSLYYRYDYWGQGTQVTVSS", "polyreactivity (PSR sort gate)": "low polyreactivity"},
      {"sequence": "QVQLVESGGGLVQAGGSLRLSCAASGSTFIGYDMGWYRQAPGQERELVAAISYSDGTYYADSVKGRFTISRDNAKNTVYLQMNSLKPEDTAVYYCATSYRDMGSHVGYWGQGTQLTVSS", "polyreactivity (PSR sort gate)": "low polyreactivity"},
      {"sequence": "QVQLVESGGGLVQAGGSLRLSCAASGSTFILNAMGWYRQAPGKEWELVAAISRSGGNTYYADSVKGRFTISRDIAKNTVYLQMNSLKPEDTAVYYCAATRRSHYYYWGQGTQVTVSS", "polyreactivity (PSR sort gate)": "high polyreactivity"},
      {"sequence": "QVQLVESGGGLVQAGGSLRLSCAASGSTFILNDMGWYRQAPGKERELVAAIDWGDSTTYYADSVKGRFTISRDNAKNTVYLQMNSLKPEDTAVYYCAADYAVSAFTRYPPTEYWGQGTQVTVSS", "polyreactivity (PSR sort gate)": "high polyreactivity"},
      {"sequence": "QVQLVESGGGLVQAGGSLRLSCAASGSTFILNYMGWYRQAPGKERELVAAIDWGDSTTYYADSVKGRFTISRDNAKNTVYLQMNSLKPEDTAVYYCAADFAVSAFTRYPPTEYWGQGTQVTVSS", "polyreactivity (PSR sort gate)": "high polyreactivity"},
      {"sequence": "QVQLVESGGGLVQAGGSLRLSCAASGSTFIPNTMGWYRQEPGKERELVAAISRRGGSTNYADSVKGRFTISRDNAKYTVYLQMNSLKPEDTAVYYCAAVSPRRYRYDYWGQGTQVTVSS", "polyreactivity (PSR sort gate)": "low polyreactivity"},
      {"sequence": "QVQLVESGGGLVQAGGSLRLSCAASGSTFIRNAMGWYRQAPGKERELVAAISSSGGRTYYADSVKGRFTISRDNAKNTVYLQMNSLKPEDTAVYYCAARNARYVHTMEYWGQGTQVTVSS", "polyreactivity (PSR sort gate)": "high polyreactivity"},
      {"sequence": "QVQLVESGGGLVQAGGSLRLSCAASGSTFIRNAMGWYRQAPGKERELVAVISSGGSTYYADSVKGRFTISRDNAKNTVYLQMNSLKPEDTAVYYCAAGDPQKEDYWGQGTQVTVSS", "polyreactivity (PSR sort gate)": "low polyreactivity"},
      {"sequence": "QVQLVESGGGLVQAGGSLRLSCAASGSTFISNAMGWYRQAPGKEREFVAAITSSGGSTYYADSVKGRFTISRDNAKNSVYLQMNSLKPEDSAVYYCARDVWSPDYLYDYWGQGTQVTVSS", "polyreactivity (PSR sort gate)": "low polyreactivity"},
      {"sequence": "QVQLVESGGGLVQAGGSLRLSCAASGSTFISNAMGWYRQAPGKERELVAAITRRGGGTYYADSVKGRFTISRDNAMNTVYLQMNSLKPEDTAVYYCAARPWWRGYRFDYWGQGTQVTVSS", "polyreactivity (PSR sort gate)": "high polyreactivity"},
      {"sequence": "QVQLVESGGGLVQAGGSLRLSCAASGSTFISYAMGWSRQAPGKERELVAAISRNGGRTYYADSVKGRFTISRDNAKNTVYLQMNSLKPEDTAVYYCAAAYNSYRFDYWGQGTQVTVSS", "polyreactivity (PSR sort gate)": "high polyreactivity"},
      {"sequence": "QVQLVESGGGLVQAGGSLRLSCAASGSTFISYAMGWYRQAPGKEREWVAAISRRGDSTYYADSVKGRFTISRDNAKNTVYLQMKSLKPEDTAVYYCAADVSGDKGSIHMNYWGQGTQVTVSS", "polyreactivity (PSR sort gate)": "low polyreactivity"},
      {"sequence": "QVQLVESGGGLVQAGGSLRLSCAASGSTFITYAMGWYRQAPGKERELVAAIRFSGDTTYADSVKGRFTISRDNAKNTVNLQLNCLKPEDTAVYYCAVVLYRYDGRKYWRDYWGQGTQVTVSS", "polyreactivity (PSR sort gate)": "high polyreactivity"},
      {"sequence": "QVQLVESGGGLVQAGGSLRLSCAASGSTFIYNAMGWYRLAPGKEREFVAGITGSGGSTYYADSVKGRFTISRDNAKNTVYLQMNSLKPEDTAVNYCNADSPVVNYADLDYWGQGTQVSVSS", "polyreactivity (PSR sort gate)": "low polyreactivity"},
      {"sequence": "QVQLVESGGGLVQAGGSLRLSCAASGSTFIYYTMGWYRQAPGKERELVAAINGGGGSTYYADSVKGRFTISRDNAKNTVYLQMTSLKPEDTAVYYCATDPWHRAWGYGWGYNYWGQGTQVTVSS", "polyreactivity (PSR sort gate)": "low polyreactivity"},
      {"sequence": "QVQLVESGGGLVQAGGSLRLSCAASGSTFIYYTMVWYRQAPGKERELVAAIPSSGGSTYYADSVKGRFTISRDNAKNTVYLQMNSLKPEDNAVYYCAADGTYIKFAKLYRSYDYWGQVTQVTVSS", "polyreactivity (PSR sort gate)": "low polyreactivity"},
      {"sequence": "QVQLVESGGGLVQAGGSLRLSCAASGSTFKIYAMGWYRQAPGKERELVARITGRGGSTYYADSVKGRFTISRDNAKNTVYLQMNSLKPEDTAVYYCAREWYQYSPYHRFDYWGQGTQVTVSS", "polyreactivity (PSR sort gate)": "high polyreactivity"},
      {"sequence": "QVQLVESGGGLVQAGGSLRLSCAASGSTFKKYAMGWYRQAPGKERELVATISKNGGSTYYADSVNGRFTISRDNAKNTVYLQMNSLKPEDTAVYYCATRWWYYRTWYDYWGQGTQVTVSS", "polyreactivity (PSR sort gate)": "high polyreactivity"},
      {"sequence": "QVQLVESGGGLVQAGGSLRLSCAASGSTFKPNAMGWYRQAPGKERELVAAISGSGGSTYYADSVKGRFTISRDNAKNTVYLQMNSLKPEDTAVYYCAAYVYTIFSWYDYWGQGTQVTVSS", "polyreactivity (PSR sort gate)": "high polyreactivity"},
      {"sequence": "QVQLVESGGGLVQAGGSLRLSCAASGSTFKPYAMGWYRQAPGKERELVAAISKSGGSTRYADSVKGRFTISRDNAKNTVYLQMNSLKPEDTAVYYCAADYIYVKYEYWGQGTQVTVSS", "polyreactivity (PSR sort gate)": "high polyreactivity"},
      {"sequence": "QVQLVESGGGLVQAGGSLRLSCAASGSTFKPYAMGWYRQAPGKERELVAAISRGTRTYADSVKGRFTITRDNAKNTVYLQMNSLKPEDTAVYYCAAEWRWIFGYHYEYDYWGQGTQVTVSS", "polyreactivity (PSR sort gate)": "low polyreactivity"},
      {"sequence": "QVQLVESGGGLVQAGGSLRLSCAASGSTFKPYAMGWYRQAPGKERELVADISGRGGSTYYADSVKGRFTISRDNAKKTVYLQMNSLKPEDTAVFYCATYSSRQRKSSYYYWGQGTHVTVSS", "polyreactivity (PSR sort gate)": "high polyreactivity"},
      {"sequence": "QVQLVESGGGLVQAGGSLRLSCAASGSTFKRYAMGWYRQAPGKERELVAAISTRGSTYYADSVKGRFTISRDNAKNTVYFQMNSLKPEDTAVYYCIARQALVWKWYWYSPGYDYWGQGTQVTVSS", "polyreactivity (PSR sort gate)": "low polyreactivity"},
      {"sequence": "QVQLVESGGGLVQAGGSLRLSCAASGSTFKRYAMGWYRQAPGKEWELVAAISASGGSTSYADSVKGRFTISRDKAKNTVYLQMNSLIPEDTAVYYCARDRFRSRLDYWGQGTQVTVSS", "polyreactivity (PSR sort gate)": "high polyreactivity"},
      {"sequence": "QVQLVESGGGLVQAGGSLRLSCAASGSTFKSYTMGWYRQAPGKERELVAAISGSGGRTYYADSVKGRFTISRDNAKNTVYLQMNSLKPEDTAVYYCAATGPYGFYWGQGTQVTVSS", "polyreactivity (PSR sort gate)": "high polyreactivity"},
      {"sequence": "QVQLVESGGGLVQAGGSLRLSCAASGSTFKTYAMGWYRQAPGKEREFVASISGSGGSTRYADSVKGRFTISRDNAKNTVYLQMNSLKPEDTAVYYCAARLQKPTNGKGVYYWGQGTQVTVSS", "polyreactivity (PSR sort gate)": "high polyreactivity"},
      {"sequence": "QVQLVESGGGLVQAGGSLRLSCAASGSTFKVYAMGWYRQAPGKERELVATISKSGSTYADSVKGRFTISRDNAKNTVYLQMNCLKPEDTAVYYCAADLYTYPRTRRRAYGYWGQGTQVTVSS", "polyreactivity (PSR sort gate)": "high polyreactivity"},
      {"sequence": "QVQLVESGGGLVQAGGSLRLSCAASGSTFKWNAMGWYRQAPGKERELVAAINSGGSTYYADSVKGRFTISRDNAKNTVYLQMNSLKPEDTAVYYCAKKWAVRTPFRYGIRYDYWGQGTQVTVSS", "polyreactivity (PSR sort gate)": "low polyreactivity"},
      {"sequence": "QVQLVESGGGLVQAGGSLRLSCAASGSTFKWYAMGWYRQAPGKERELVAAINWSSGRTYYADSVKGRFTISRDNAKNTVYLQMNSLKPEDTAVYYCAAEAGYFSWRTMDYWGQGTQVTVSS", "polyreactivity (PSR sort gate)": "high polyreactivity"}
    ]}
  ]
}
